Assay results as given in patent US20220177587A1, “METHODS AND USES OF VARIANT CD80 FUSION PROTEINS AND RELATED CONSTRUCTS” (Alpine Immune Sciences, Inc., priority 2018, published 2022).

How the values were obtained:
huPD-L1 = huPD-L1 (Homo sapiens, UniProt Q9NZQ7); assay: Flow binding to CHO cells stably expressing PD-L1; parameters: huCTLA4 and huPD-L1, full-length mammalian surface expression constructs were generated; expressed in transfected cells; host or cells: CHO cells, lentiviral transduction, sorted to >98% purity; conditions: for PD-L1 Fold change to WT CD80 / PD-L1 MFI at 33.3 nM: 33.3 nM; for PD-L1 MFI at 33.3 nM: CHO cells stably expressing PD-L1
huPD-L1, sequence (Q9NZQ7 19-290): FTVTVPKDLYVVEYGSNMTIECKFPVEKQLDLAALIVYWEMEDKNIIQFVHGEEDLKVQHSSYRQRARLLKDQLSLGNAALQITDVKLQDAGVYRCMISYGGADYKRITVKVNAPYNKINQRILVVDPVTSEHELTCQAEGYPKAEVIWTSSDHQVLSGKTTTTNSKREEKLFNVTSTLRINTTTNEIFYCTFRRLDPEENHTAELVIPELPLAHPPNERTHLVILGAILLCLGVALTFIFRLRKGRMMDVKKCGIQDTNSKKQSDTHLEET
How it was run: (§1)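 Flow cytometry on transfected CHO cells or CD28+ Jurkat/IL2 reporter cells, blocked 20 min in PBS/1% BSA/0.1% azide. Fusion protein 45 min on ice; PE anti-human Fc 1:150, 30 min on ice; fixed in 2% formaldehyde. Read-out PE MFI, EC50 calculated.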

CD28 [1] = molecular target: T1, CD28 (Homo sapiens, UniProt P10747); assay: Flow binding to Jurkat/IL2 reporter cells (CD28); parameters: host or cells: Jurkat cells expressing an IL-2-luciferase reporter; conditions: 33.3 nM; for CD28 MFI at 33.3 nM: Jurkats (CD28)
How it was run: as §1

CD28 [2] = molecular target: T1, CD28; assay: Jurkat/IL2 + CHO/OKT3 +/- PD-L1 reporter assay: PD-L1-dependent CD28 costimulation; assay type: cell-based; parameters: host or cells: Jurkat cells expressing an IL-2-luciferase reporter; conditions: Jurkat/IL2 + CHO/OKT3/PD-L1, 5.0 nM
How it was run: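 Jurkat reporter cells (100,000/well) preincubated 15 min at room temperature with test protein, then cocultured 5 h at 37 °C with CHO aAPCs bearing anti-CD3 scFv (OKT3) with or without PD-L1. Luciferase luminescence (RLU) read after lysis-substrate addition.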

huCTLA4 = huCTLA4 (Homo sapiens, UniProt P16410); assay: Flow binding to CHO cells stably expressing CTLA4; parameters: huCTLA4 and huPD-L1, full-length mammalian surface expression constructs were generated; expressed in transfected cells; host or cells: CHO cells, lentiviral transduction, sorted to >98% purity; conditions: 33.3 nM; for CTLA4 MFI at 33.3 nM: CHO cells stably expressing CTLA4
huCTLA4, sequence (P16410 36-223): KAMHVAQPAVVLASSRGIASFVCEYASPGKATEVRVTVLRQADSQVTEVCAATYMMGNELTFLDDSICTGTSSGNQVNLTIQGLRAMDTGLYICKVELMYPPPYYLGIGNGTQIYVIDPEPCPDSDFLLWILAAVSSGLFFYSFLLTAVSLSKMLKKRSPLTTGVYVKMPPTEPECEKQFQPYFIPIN
How it was run: as §1

[3] = Table E11, listed as WT CD80 ECD-Fc = 1.0
[4] = Table E10, relative to CD80 WT IgV-Fc
[5] = Table E10, binding to PD-L1 compared to binding to CD28

Molecule | PD-L1 Fold change to WT CD80 (huPD-L1; [3]) | PD-L1 MFI at 33.3 nM (huPD-L1; Table E11) | Ratio of PDL1:CD28 (huPD-L1; Table E11, MFI at 33.3 nM) | CD28 Fold change to WT CD80 (CD28 [1]; [3]) | CD28 MFI at 33.3 nM (CD28 [1]; Table E11) | Fold Increase over WT CD80-IgV-Fe (CD28 [2]; Table E13) | Relative Luciferase Units (RLU), CD80 Cone 5.0 nM (CD28 [2]; Table E13) | CTLA4 Fold change to WT CD80 (huCTLA4; [3]) | CTLA4 MFI at 33.3 nM (huCTLA4; Table E11) | PD-L1 MFI at 33.3 nM (huPD-L1; Table E10) | PD-L1 Fold change to WT CD80 (huPD-L1; [4]) | Ratio of PDL1:CD28 (huPD-L1; [5]) | CD28 MFI at 33.3 nM (CD28 [1]; Table E10) | CD28 Fold change to WT CD80 (CD28 [1]; [4]) | Fold Increase over WT CD80-IgV-Fe (CD28 [2]; Table E12) | Relative Luciferase Units (RLU), CD80 Cone 5.0 nM (CD28 [2]; Table E12) | CTLA4 MFI at 33.3 nM (huCTLA4; Table E10) | CTLA4 Fold change to WT CD80 (huCTLA4; [4])
Q27H/E35D/M47I (protein) VIHVTKEVKEVATLSCGHNVSVEELAHTRIYWQKDKKMVLTMMSGDINIWPEYKNRTIFDITNNLSIVILALRPSDEGTYECVVLKYEKDAFKREHLAEVTLSVKAD |  |  |  |  |  |  |  |  |  | 3424 | 48.7 | 5 | 756 | 11.5 | 4.6 | 1829 RLU | 27530 | 14.4
H18Y/E35D (protein) VIHVTKEVKEVATLSCGYNVSVEELAQTRIYWQKDKKMVLTMMSGDMNIWPEYKNRTIFDITNNLSIVILALRPSDEGTYECVVLKYEKDAFKREHLAEVTLSVKAD |  |  |  |  |  |  |  |  |  | 3526 | 50.2 | 7 | 479 | 7.3 | 5.0 | 1990 RLU | 26258 | 13.7
E35D/D46E/A91G (protein) VIHVTKEVKEVATLSCGHNVSVEELAQTRIYWQKDKKMVLTMMSGEMNIWPEYKNRTIFDITNNLSIVILALRPSDEGTYECVVLKYEKDGFKREHLAEVTLSVKAD |  |  |  |  |  |  |  |  |  | 2818 | 40.1 | 1 | 3450 | 52.3 | 1.0 | 395 RLU | 32189 | 16.8
E35D/D46E/L85M (protein) VIHVTKEVKEVATLSCGHNVSVEELAQTRIYWQKDKKMVLTMMSGEMNIWPEYKNRTIFDITNNLSIVILALRPSDEGTYECVVMKYEKDAFKREHLAEVTLSVKAD |  |  |  |  |  |  |  |  |  | 2880 | 41.0 | 18 | 164 | 2.5 | 3.5 | 1413 RLU | 30289 | 15.8
E35D/D46E (protein) VIHVTKEVKEVATLSCGHNVSVEELAQTRIYWQKDKKMVLTMMSGEMNIWPEYKNRTIFDITNNLSIVILALRPSDEGTYECVVLKYEKDAFKREHLAEVTLSVKAD |  |  |  |  |  |  |  |  |  | 3757 | 53.4 | 5 | 779 | 11.8 | 4.9 | 1961 RLU | 27921 | 14.6
Q27L/E35D/M47V/I61V/L85M (protein) VIHVTKEVKEVATLSCGHNVSVEELALTRIYWQKDKKMVLTMMSGDVNIWPEYKNRTIFDVTNNLSIVILALRPSDEGTYECVVMKYEKDAFKREHLAEVTLSVKAD |  |  |  |  |  |  |  |  |  | 2705 | 38.5 | 12 | 230 | 3.5 | 2.9 | 1166 RLU | 27881 | 14.6

Now from value to molecule:

PD-L1 Fold change to WT CD80 (huPD-L1; [3]) | PD-L1 MFI at 33.3 nM (huPD-L1; Table E11) | Ratio of PDL1:CD28 (huPD-L1; Table E11, MFI at 33.3 nM) | CD28 Fold change to WT CD80 (CD28 [1]; [3]) | CD28 MFI at 33.3 nM (CD28 [1]; Table E11) | Fold Increase over WT CD80-IgV-Fe (CD28 [2]; Table E13) | Relative Luciferase Units (RLU), CD80 Cone 5.0 nM (CD28 [2]; Table E13) | CTLA4 Fold change to WT CD80 (huCTLA4; [3]) | CTLA4 MFI at 33.3 nM (huCTLA4; Table E11) | PD-L1 MFI at 33.3 nM (huPD-L1; Table E10) | PD-L1 Fold change to WT CD80 (huPD-L1; [4]) | Ratio of PDL1:CD28 (huPD-L1; [5]) | CD28 MFI at 33.3 nM (CD28 [1]; Table E10) | CD28 Fold change to WT CD80 (CD28 [1]; [4]) | Fold Increase over WT CD80-IgV-Fe (CD28 [2]; Table E12) | Relative Luciferase Units (RLU), CD80 Cone 5.0 nM (CD28 [2]; Table E12) | CTLA4 MFI at 33.3 nM (huCTLA4; Table E10) | CTLA4 Fold change to WT CD80 (huCTLA4; [4]) | Molecule
328.4 | 16912 | 11.1 | 48.3 | 1517 | 2.7 | 1072 RLU | 9.3 | 16243 |  |  |  |  |  |  |  |  |  | E35D/M43I/M47L/V68M (protein, UniProt P33681 35-288, looked up, variant E35D M43I M47L V68M) T-lymphocyte activation …: VIHVTKEVKEVATLSCGHNVSVEELAQTRIYWQKDKKMVLTMISGDLNIWPEYKNRTIFDITNNLSIMILALRPSDEGTYECVVLKYEKDAFKREHLAEVTLSVKADFPTPSISDFEIPTSNIRRIICSTSGGFPEPHLSWLENGEELNAINTTVSQDPETELYAVSSKLDFNMTTNHSFMCLIKYGHLRVNQTFNWNTTKQEHFPDNLLPSWAITLISVNGIFVICCLTYCFAPRCRERRRNERLRRESVRPV
485.9 | 25024 | 65.3 | 12.2 | 383 | 3.9 | 1546 RLU | 9.1 | 16013 |  |  |  |  |  |  |  |  |  | E35D/M47L/Y53F/V68M/A71G/K93R/E95V (protein, UniProt P33681 35-288, looked up, variant E35D M47L Y53F V68M A71G K93R E95V) T-lymphocyte activation …: VIHVTKEVKEVATLSCGHNVSVEELAQTRIYWQKDKKMVLTMMSGDLNIWPEFKNRTIFDITNNLSIMILGLRPSDEGTYECVVLKYEKDAFRRVHLAEVTLSVKADFPTPSISDFEIPTSNIRRIICSTSGGFPEPHLSWLENGEELNAINTTVSQDPETELYAVSSKLDFNMTTNHSFMCLIKYGHLRVNQTFNWNTTKQEHFPDNLLPSWAITLISVNGIFVICCLTYCFAPRCRERRRNERLRRESVRPV
 |  |  |  |  |  |  |  |  | 3789 | 53.9 | 4 | 1001 | 15.2 | 4.8 | 1915 RLU | 21394 | 11.2 | E35D/D46E/M47I (protein) VIHVTKEVKEVATLSCGHNVSVEELAQTRIYWQKDKKMVLTMMSGEINIWPEYKNRTIFDITNNLSIVILALRPSDEGTYECVVLKYEKDAFKREHLAEVTLSVKAD
 |  |  |  |  |  |  |  |  | 2191 | 31.2 | 30 | 72.4 | 1.1 | 2.8 | 1136 RLU | 30262 | 15.8 | E35D/T41S/N48T (protein) VIHVTKEVKEVATLSCGHNVSVEELAQTRIYWQKDKKMVLSMMSGDMTIWPEYKNRTIFDITNNLSIVILALRPSDEGTYECVVLKYEKDAFKREHLAEVTLSVKAD
